Target: microtubules of purified bovine brain tubulin (bovine) (UniProt Q6B856)
Experiment: optical trap rupture force assay; kinetochores held on beads by α-penta-His antibody; dynamic microtubules grown from coverslip-anchored GMPCPP seeds; force ramp 0.25 pN/s; 23 °C; BRB80

Row | Substance | median rupture force
1 | purified native K. marxianus kinetochores (from UniProt A0ABX6F0Z3 1-547; A0ABX6F2N8 1-203; A0ABX6ES48 1-179; A0ABX6ET36 1-377) (complex) | 7.5 pN
2 | purified native S. cerevisiae kinetochores (from UniProt P40568 1-576) (complex) | 7.2 pN
